The values that follow come from IntAct's records for PubMed 17711851.

B1: Golgi resident protein GCP60 (Homo sapiens), Q9H3P7 (parent)
chain: MAAVLNAERLEVSVDGLTLSPDPEERPGAEGAPLLPPPLPPPSPPGSGRGPGASGEQPEPGEAAAGGAAEEARRLEQRWGFGLEELYGLALRFFKEKDGKAFHPTYEEKLKLVALHKQVLMGPYNPDTCPEVGFFDVLGNDRRREWAALGNMSKEDAMVEFVKLLNRCCHLFSTYVASHKIEKEEQEKKRKEEEERRRREEEERERLQKEEEKRRREEEERLRREEEERRRIEEERLRLEQQKQQIMAALNSQTAVQFQQYAAQQYPGNYEQQQILIRQLQEQHYQQYMQQLYQVQLAQQQAALQKQQEVVVAGSSLPTSSKVNATVPSNMMSVNGQAKTHTDSSEKELEPEAAEEALENGPKESLPVIAAPSMWTRPQIKDFKEKIQQDADSVITVGRGEVVTVRVPTHEEGSYLFWEFATDNYDIGFGVYFEWTDSPNTAVSVHVSESSDDDEEEEENIGCEEKAKKNANKPLLDEIVPVYRRDCHEEVYAGSHQYPGRGVYLLKFDNSYSLWRSKSVYYRVYYTR
partner: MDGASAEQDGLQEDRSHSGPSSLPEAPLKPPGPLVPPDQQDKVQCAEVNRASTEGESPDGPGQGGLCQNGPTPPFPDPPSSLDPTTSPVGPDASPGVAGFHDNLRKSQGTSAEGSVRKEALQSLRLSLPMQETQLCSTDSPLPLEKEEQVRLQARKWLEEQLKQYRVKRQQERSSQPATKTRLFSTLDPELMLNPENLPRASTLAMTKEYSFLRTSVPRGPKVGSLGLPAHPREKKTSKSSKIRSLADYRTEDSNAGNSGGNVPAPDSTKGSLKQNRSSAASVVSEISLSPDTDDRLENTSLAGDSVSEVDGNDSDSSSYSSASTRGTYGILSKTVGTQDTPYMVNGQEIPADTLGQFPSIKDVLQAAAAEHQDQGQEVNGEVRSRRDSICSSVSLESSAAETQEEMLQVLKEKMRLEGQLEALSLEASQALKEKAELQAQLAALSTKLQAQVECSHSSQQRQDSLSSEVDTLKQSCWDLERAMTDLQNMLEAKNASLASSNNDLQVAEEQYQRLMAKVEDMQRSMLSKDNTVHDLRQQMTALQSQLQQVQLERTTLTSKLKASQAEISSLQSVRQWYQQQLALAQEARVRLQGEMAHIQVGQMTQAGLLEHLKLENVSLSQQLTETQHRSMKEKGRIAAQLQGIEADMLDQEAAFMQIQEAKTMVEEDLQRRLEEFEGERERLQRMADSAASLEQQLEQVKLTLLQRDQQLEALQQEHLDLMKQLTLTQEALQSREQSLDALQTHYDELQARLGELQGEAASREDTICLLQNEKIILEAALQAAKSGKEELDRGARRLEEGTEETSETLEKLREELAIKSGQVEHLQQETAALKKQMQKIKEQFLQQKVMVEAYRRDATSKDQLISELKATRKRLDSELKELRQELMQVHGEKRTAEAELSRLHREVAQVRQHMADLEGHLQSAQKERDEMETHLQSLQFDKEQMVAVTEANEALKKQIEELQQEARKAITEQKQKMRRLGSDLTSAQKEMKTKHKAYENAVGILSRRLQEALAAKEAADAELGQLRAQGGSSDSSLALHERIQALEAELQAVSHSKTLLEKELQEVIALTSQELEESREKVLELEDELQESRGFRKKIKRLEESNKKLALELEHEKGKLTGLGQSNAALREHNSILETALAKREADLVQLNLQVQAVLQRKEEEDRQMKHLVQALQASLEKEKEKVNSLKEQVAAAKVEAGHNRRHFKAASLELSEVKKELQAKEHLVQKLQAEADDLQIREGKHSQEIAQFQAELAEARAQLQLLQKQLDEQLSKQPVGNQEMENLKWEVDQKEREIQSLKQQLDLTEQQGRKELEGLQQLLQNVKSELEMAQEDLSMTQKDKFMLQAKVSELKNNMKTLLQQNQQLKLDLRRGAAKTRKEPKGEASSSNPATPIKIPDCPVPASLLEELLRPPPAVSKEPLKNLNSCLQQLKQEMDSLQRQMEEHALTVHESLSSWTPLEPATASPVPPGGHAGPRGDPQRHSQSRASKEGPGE

In the experiment the parent is B1. Particulars: with goga3_human GOLGA3, Q08378.
MAAVLNAERLEVSVDGLTLSPDPEERPGAEGAPLLPPPLPPPSPPGSGRGPGASGEQPEPGEAAAGGAAEEARRLEQRWGFGLEELYGLALRFFKEKDGKAFHPTYEEKLKLVALHKQVLMGPYNPDTCPEVGFFDVLGNDRRREWAALGNMSKEDAMVEFVKLLNRCCHLFSTYVASHKIEKEEQEKKRKEEEERRRREEEERERLQKEEEKRRREEEERLRREEEERRRIEEERLRLEQQKQQIMAALNSQTAVQFQQYAAQQYPGNYEQQQILIRQLQEQHYQQYMQQLYQVQLAQQQAALQKQQEVVVAGSSLPTSSKVNATVPSNMMSVNGQAKTHTDSSEKELEPEAAEEALENGPKESLPVIAAPSMWTRPQIKDFKEKIQQDADSVITVGRGEVVTVRVPTHEEGSYLFWEFATDNYDIGFGVYFEWTDSPNTAVSVHVSESSDDDEEEEENIGSEEKAKKNANKPLLDEIVPVYRRDCHEEVYAGSHQYPGRGVYLLKFDNSYSLWRSKSVYYRVYYTR [C463S]: the “effect of a mutation on the interaction” value is given as “disrupting interaction”.
